The record followed here is US20190336574A1 (TRUSTEES OF PRINCETON UNIVERSITY, published 2019).

Sequences and labels used below:
T1: HA-SND1, full-length human, wild type (human, UniProt Q7KZF4 1-910)
T1 construct: Full-length, HA-tagged; Expressed in HEK293T cells, tested in lysate; also called HA-tagged SND1; WT HA-SND1
T1 sequence: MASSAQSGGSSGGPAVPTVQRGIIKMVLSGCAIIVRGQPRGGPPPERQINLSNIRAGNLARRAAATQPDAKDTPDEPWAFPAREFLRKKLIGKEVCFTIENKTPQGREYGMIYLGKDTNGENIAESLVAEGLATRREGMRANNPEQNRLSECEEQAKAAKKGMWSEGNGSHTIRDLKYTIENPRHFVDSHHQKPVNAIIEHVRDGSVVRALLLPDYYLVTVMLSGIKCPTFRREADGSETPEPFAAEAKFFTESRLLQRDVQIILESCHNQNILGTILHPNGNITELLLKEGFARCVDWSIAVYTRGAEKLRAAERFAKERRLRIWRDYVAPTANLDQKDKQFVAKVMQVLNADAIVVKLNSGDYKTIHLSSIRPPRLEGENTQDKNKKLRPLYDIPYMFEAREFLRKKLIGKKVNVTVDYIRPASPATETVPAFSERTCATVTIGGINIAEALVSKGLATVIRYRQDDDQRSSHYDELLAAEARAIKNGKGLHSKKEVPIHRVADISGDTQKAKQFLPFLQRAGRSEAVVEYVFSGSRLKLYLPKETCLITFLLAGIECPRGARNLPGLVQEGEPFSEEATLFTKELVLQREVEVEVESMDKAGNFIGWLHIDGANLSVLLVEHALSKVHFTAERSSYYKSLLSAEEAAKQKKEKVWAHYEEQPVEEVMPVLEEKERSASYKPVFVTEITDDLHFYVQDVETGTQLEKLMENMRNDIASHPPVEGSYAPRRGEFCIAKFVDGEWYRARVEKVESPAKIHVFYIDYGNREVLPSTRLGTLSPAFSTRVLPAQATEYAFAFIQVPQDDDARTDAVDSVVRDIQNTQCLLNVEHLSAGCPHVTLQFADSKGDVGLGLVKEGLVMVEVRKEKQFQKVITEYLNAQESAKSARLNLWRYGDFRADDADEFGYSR

B1: Myc-MTDH D389R, full-length human (other)
chain: MAARSWQDELAQQAEEGSARLREMLSVGLGFLRTELGLDLGLEPKRYPGWVILVGTGALGLLLLFLLGYGWAAACAGSRKKRRSPPRKREEAAAVPAAAPDDLALLKNLRSEEQKKKNRKKLSEKPKPNGRTVEVAEGEAVRTPQSVTAKQPPEIDKKNEKSKKNKKKSKSDAKAVQNSSRHDGKEVDEGAWETKISHREKRQQRKRDKVLTDSGSLDSTIPGIENTITVTTEQLTTASFPVGSKKNKGDSHLNVQVSNFKSGKGDSTLQVSSGLNENLTVNGGGWNEKSVKLSSQISAGEEKWNSVSPASAGKRKAEPSAWSQDTGDANTNGKDWGRSWSDRSIFSGIGSTAEPVSQSTTSDYQWDVSRNQPYIDDEWSGLNGLSSARPNSDWNAPAEEWGNWVDEERASLLKSQEPIPDDQKVSDDDKEKGEGALPTGKSKKKKKKKKKQGEDNSTAQDTEELEKEIREDLPVNTSKTRPKQEKAFSLKTISTSDPAEVLVKNSQPIKTLPPATSTEPSVILSKSDSDKSSSQVPPILQETDKSKSNTKQNSVPPSQTKSETSWESPKQIKKKKKARRET
notes: Full-length, Myc-tagged; also called SPM11
B2: Myc-MTDH W401A, full-length human (other)
chain: B1 chain with R389D, W401A
notes: Full-length, Myc-tagged
B3: Myc-MTDH W394A, full-length human (other)
chain: B1 chain with R389D, W394A
notes: Full-length, Myc-tagged
B4: Myc-MTDH W394D, full-length human (other)
chain: B1 chain with R389D, W394D
notes: Full-length, Myc-tagged; also called SPM13

Changes are numbered by the printed parent chain. In names and notes the source's numbering stands.

This experiment deals with T1, HA-SND1, full-length human, wild type. As to the kind of experiment: co-IP from HEK293T lysates (anti-HA per text, anti-Myc per legend), western blot. How it is done: Immunoprecipitation and western blot: For in vivo immunoprecipitation (IP) experiments, cultured cells were washed in cold PBS and lysed in lysis buffer (20 mM Tris pH 7.4, 0.15 M NaCl, 1 mM EDTA, 1 mM EGTA, 1% Tx-100, 0.0025 M Na2P2O7, 1 mM β-glycerolphosphate, 1 mM Na3VO4, and 1 mM NaF) with an EDTA-free protease inhibitor mixture (Roche Applied Science) and PMSF. Cell lysates were then incubated on ice for 10 min, centrifuged, and precleared by incubating with protein A/G beads (Santa Cruz Biotechnology) for 1 h at 4° C. For IP bead preparation, 30 μl of protein A/G beads were incubated with 5 μg of antibodies for 2 h at 4° C. IPs were carried out for overnight at 4° C., and beads were centrifuged, washed and subsequently boiled for 5 min in SDS protein loading buffer to elute bound protein. IP lysates were subjected to western blotting with indicated antibodies.
It was further examined how the MTDH and SND1 mutations identified at this interface affected the interaction of full-length proteins in mammalian cells. Full-length HA-tagged SND1 was co-expressed with full-length Myc-tagged wild-type (WT) or mutant MTDH in HEK293T cells and cell lysates were subjected to anti-HA immunoprecipitation for SND1 pull down. Consistent with in vitro observations (FIG. 22A), WT MTDH, but not mutants W394A, W394D, or W401A, was pulled down along with HA-SND1 (FIG. 22C, in red). […] Likewise, the SND1 mutations that affected MTDH-binding in vitro also affected the binding of full-length proteins in vivo to similar levels.
Background: In western blotting, separated proteins are transferred to a membrane and probed.
B1: the binding result is “binds”. On to B2, for which the binding result is given as “no binding”.

With B3, the binding result is “no binding”.

Consider B4, for which the binding result is “no binding”.
